B1: BST1_A3 (Fab, V domains shown)
VH: QVQLQQSRAELVMPGASVKMSCKTSGYTFSDYWVHWVRQRPGQGLEWIGAIDGSDTFNDYSQKFKGRATLTVDESSSTVYMQLSSLTSEDSAVYYCARGGLLQYWGQGTTLTVSS
VL: DIQLTQSPASLSASVGETVTITCRASENIYSYLAWYQQKQGKSPQLLVYNTKTLGEGVPSRFSGSGSGTQFSLKINSLQPEDFGSYYCQHHYGTPFTFGSGTKLEIKR
notes: they are whole murine Fab chains: bacterial leader, variable domain and constant domain, with a His tag on the heavy chain
B2: BST1_A2 (Fab, V domains shown)
VH: QAYLQQSGPELVKAGASVKMSCKASGYSFIEYTINWVKQSHGKSLEWIGNIDPYYGTTYYNQMFTGKATLTVDQSSNTAYMQLKSLTSEDSAVYFCARGSAWFPYWGQGTLVTVSA
VL: DIVMSQSPAIMSASPGEKVTMTCSASSSVTYMYWYQQKPGSSPRLLIYDTSNLASGVPVRFSGSGSGTSYSLTISRMEAEDTATYYCQQWSNYPLTFGAGTKLELKR
notes: they are whole murine Fab chains: bacterial leader, variable domain and constant domain, with a His tag on the heavy chain; also called anti-BST1 monoclonal antibody BST1_A2
B3: BST1_A1 (Fab, V domains shown)
VH: QVKLQQSGAELVRPGSSVKISCKASGYAFSNSWINWVKQRPGQGLEWIGQIYPGDYDTNYNGKFKGKATLTADYSSSTAYMQLNSLTSEDSAVYFCARGGSIYYGNLGFFDVWGAGTTVTVSS
VL: EMVLTQSPAIMSTSLGERVTMTCTASSRVSSSYLHWYQQKPGSSPKLWIYSTSNLASGVPARFSGSGSGTSYSLTISSMEAEDAATYYCHQYHRSPYTFGGGTKLEIKR
notes: also called anti-BST1 monoclonal antibody BST1_A1

These binders were tested against T1, Bone marrow stromal antigen 1 (BST1), human, on the cell surface (human, UniProt Q10588 33-293) (assay: flow cytometry on BST1-expressing H226 and A549 cells, PE-labelled secondary antibody, geometric mean fluorescence (PE GMFI); antibody concentration not given).
T1 construct: This is endogenous BST1 on A549, H226 and U937 cells and on primary MDS bone marrow cells; also called ADP-ribosyl cyclase 2; CD157
T1 sequence: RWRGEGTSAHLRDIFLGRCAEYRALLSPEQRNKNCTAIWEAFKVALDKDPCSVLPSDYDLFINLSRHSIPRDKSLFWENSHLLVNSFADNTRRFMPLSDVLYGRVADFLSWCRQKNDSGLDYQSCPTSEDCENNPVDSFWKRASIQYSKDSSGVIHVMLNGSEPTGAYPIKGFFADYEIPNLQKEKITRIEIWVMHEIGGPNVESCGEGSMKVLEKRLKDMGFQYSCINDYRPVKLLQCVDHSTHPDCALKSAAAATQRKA
Experimental: The specificity of antibodies against the BST1 selected in Example 2 was tested by flow cytometry. To test the ability of the antibodies to bind to the cell surface BST1 protein, the antibodies were incubated with the BST1-expressing cells, A549 and H226, from human lung adenocarcinoma and human lung squamous carcinoma, respectively. Cells were washed in FACS buffer (DPBS, 2% FBS), centrifuged and resuspended in 100 μl of the diluted primary BST1 antibody (also diluted in FACS buffer). The antibody-A549 complex was incubated on ice for 60 min and then washed twice with FACS buffer as described above. The cell-antibody pellet was resuspended in 100 μl of the diluted secondary antibody (also diluted in FACS buffer) and incubated on ice for 60 min on ice. The pellet was washed as before and resuspended in 200 μl FACS buffer. The samples were loaded onto the BD FACScanto II flow sytometer and the data analyzed using the BD FACSdiva software.
B1: binds. B2: binds. B3: binds.

— patent US20210032360A1 (BERLIN CHEMIE, published 2021)
